According to article doi:10.1101/2022.05.07.491051 (bioRxiv, 2022):
Like-named read-outs stand apart in the source and are kept apart here.

What was measured:
[1] = molecular target: the molecule itself; assay: SEC-MALS
[2] = molecular target: the molecule itself; assay: SEC-MALS; remark: listed apart in the source
[3] = molecular target: the molecule itself; assay: crystal structure

Protein | stoichiometry N [2] | further results
AbTir^TIR (amino acid 134-267) (domain or fragment, Acinetobacter, UniProt A0A009IHW8 134-267, looked up) EYDLFISHASEDKEDFVRPLAETLQQLGVNVWYDEFTLKVGDSLRQKIDSGLRNSKYGTVVLSTDFIKKDWTNYELDGLVAREMNGHKMILPIWHKITKNDVLDYSPNLADKVALNTSVNSIEEIAHQLADVIL |  | binding result [1]: binds
AbTir^full-length (amino acid 1-269) (natural protein, Acinetobacter, UniProt A0A009IHW8 1-269, looked up) MSLEQKKGADIISKILQIQNSIGKTTSPSTLKTKLSEISRKEQENARIQSKLSDLQKKKIDIDNKLLKEKQNLIKEEILERKKLEVLTKKQQKDEIEHQKKLKREIDAIKASTQYITDVSISSYNNTIPETEPEYDLFISHASEDKEDFVRPLAETLQQLGVNVWYDEFTLKVGDSLRQKIDSGLRNSKYGTVVLSTDFIKKDWTNYELDGLVAREMNGHKMILPIWHKITKNDVLDYSPNLADKVALNTSVNSIEEIAHQLADVILNR |  | stoichiometry N [1]: 2
AbTir^CC (amino acid 27-118) (domain or fragment, Acinetobacter, UniProt A0A009IHW8 27-118, looked up) SPSTLKTKLSEISRKEQENARIQSKLSDLQKKKIDIDNKLLKEKQNLIKEEILERKKLEVLTKKQQKDEIEHQKKLKREIDAIKASTQYITD |  | binding result [1]: binds
BcThsA^SLOG (284-476) (domain or fragment, Bacilus cereus MSX-D12, UniProt J8G6Z1 284-476, looked up) TVFLSGSAVEYNHWETEHAEQFIHQLSKELIRKDFNIVSGFGLGVGSFVINGVLEELYMNQGTIDDDRLILRPFPQGKKGEEQWDKYRRDMITRTGVSIFLYGNKIDKGQVVKAKGVQSEFNISFEQNNYVVPVGATGYIAKDLWNKVNEEFETYYPGADARMKKLFGELNNEALSIEELINTIIEFVEILSN | 2 | 
SeThsA^SIR2 (residues 1-283) (domain or fragment, Streptococcus equi, UniProt C0MAL8 1-283, looked up) MFIIKGEVSRKDLIREIEKAIKSDELGAFIGAGLSIPAGFCSWKELLREPAEEIGLDVEKESDLVNLAQYYSNSKKRTSIDDLIKGQFSQLVKPTENHKLLSQLPISTFWTTNYDKLIEKALENNMKKPYVKTKDEQLRGTNHNFDAIVYKLHGDVETPEDAVITRSDYEEFGYNKRKLFREVLEGDLLTKTFLFLGFSFEDPNFNYVIGRLRVLLDEKNTRKHYCIMKRVQDADEDYEYKKARQELQIEDLNRYGIFTYLVNKYDEITEILSTLVDRFRRKT | 2 | 
SeThsA (Streptococcus equi ThsA) (enzyme) MFIIKGEVSRKDLIREIEKAIKSDELGAFIGAGLSIPAGFCSWKELLREPAEEIGLDVEKESDLVNLAQYYSNSKKRTSIDDLIKGQFSQLVKPTENHKLLSQLPISTFWTTNYDKLIEKALENNMKKPYVKTKDEQLRGTNHNFDAIVYKLHGDVETPEDAVITRSDYEEFGYNKRKLFREVLEGDLLTKTFLFLGFSFEDPNFNYVIGRLRVLLDEKNTRKHYCIMKRVQDADEDYEYKKARQELQIEDLNRYGIFTYLVNKYDEITEILSTLVDRFRRKTIFISGSAYSYSAYSQKTGENFIHKLSFELSKNGYHIVNGYGKGVGEFVLNGVADYCLTHKSKINDFLTLMPFPQNSSLGIDLDKLYKENREQMIESCGIAIFLFGNKEAEDIASGVMDEYELSKKHGLVCLPIEYTGGASKEIYDQTTQEISDKNTISAIEQANKQCDGDIDMSVKNIVQAVKILNKEEF | 4 | 
BtTir^TIR (residues 156-287) (domain or fragment, Bacteroides thetaiotaomicron, UniProt A0A0P0FGV9 156-287, looked up) QYDFFISHASEDKDDIVRDLAEALRNNGFEVWYDEFELKIGDSLRKKIDYGLSNANYGIVIISPSFVKKNWTEYELNGMVAREMNGHKVILPIWHKITKDEVLRFSPSLADKLALNTSIHTIDDIVENLKNL |  | binding result [3]: binds
EfThsA (Enterococcus faecium ThsA) (enzyme, UniProt P0DW60 1-478, looked up) MDKKVLIKRFSEAIEKGNAAIFAGAGLSMSQGYVSWPELLNDPATEIGLDSKKETDLVTLAQYYKNENGGSRGILNQILMDNFGEELEISENHRILASLPIETYWTTNYDHLIEKSIREAYKNPQVKKNYTQLATTNPNVDTIVYKMHGDIDDVSSTVITRDDYEKYDDDSYALFKETLKGDLLTKTFLFLGFSFTDPNLERILSDIRWVLRENQRPHYCIMRKILKENFVDSEDFFDQERYNYELTKRRLQINDLSRFSINVVEVDDYSEITDILKSIRKKYLRKTIFISGSAVDYTPFTSESKGLKFVEKLAYRLSESGYRIVSGYGLGIGNSIVSGVLKQRRNLRKNNIQDVLSLRPLPLDMPHEWRRYRENIIAESGISIFVFGNKLESGEIVTADGMIEEFELSVQNENIVVPIGFTKGASKVLFDKIQENFSDYFDDSLKSKFQALEKLDTEGEVDKKVEQIVSLINSIQED | 4 | 
AbThsA (Acinetobacter baumannii ThsA) (enzyme, UniProt P0DW59 1-482, looked up) MFEHEQKIMIDRIVKELEENNFAIFAGAGLSAPAGYVNWKELLRPLSIELNLDIDKETDLVSLAQYYVNENHGRNRLTERLIDEVGVAREPTPNHKILAKLPISTYWTTNYDDLIEKALDNEGKIADKKFTKNHLSQTKKGRSAVVYKMHGDASLPDQAIITKDQYESYPLHFAPFVTALSGDLVSKTFLFLGFSFNDPNLDYILSRIRIHFEQNQRQHYCIFRKVNRADYSNDEDFSYNLLKQQFVIKDLARFSIKVVLIDAWNDLTRILEEITKRFRCKNVFLSGSAHEFGSWGQTATELFLSKLGEVLIQEGFKITSGLGLGIGNAFISGAIKEIYNRKYTKIDDYLTMKVFPQFVADPTERKNIWTAWRKDLLSQTGIALFFMGNKIIKDPESGKQTIVLADGMDEEFHIAHELGLKLIPIGASGYKAKELFNQIISDFDHYYPNSSPKFREAFEKLNEEVDEPVKLLSKIHDVIKLI | 4 | 
BcThsA, full-length (Bacillus cereus MSX-D12 Thoeris ThsA) (enzyme, Bacilus cereus MSX-D12, UniProt J8G6Z1 1-476, looked up) MKMNPIVELFIKDFTKEVMEENAAIFAGAGLSMSVGYVSWAKLLEPIAQEIGLDVNKENDLVSLAQYYCNENQGNRGRINQIILDEFSRKVDLTENHKILARLPIHTYWTTNYDRLIEKALEEENKIADVKYTVKQLATTKVKRDAVVYKMHGDVEHPSEAVLIKDDYEKYSIKMDPYIKALSGDLVSKTFLFVGFSFTDPNLDYILSRVRSAYERDQRRHYCLIKKEERRPDELEADFEYRVRKQELFISDLSRFNIKTIVLNNYNEITEILQRIENNIKTKTVFLSGSAVEYNHWETEHAEQFIHQLSKELIRKDFNIVSGFGLGVGSFVINGVLEELYMNQGTIDDDRLILRPFPQGKKGEEQWDKYRRDMITRTGVSIFLYGNKIDKGQVVKAKGVQSEFNISFEQNNYVVPVGATGYIAKDLWNKVNEEFETYYPGADARMKKLFGELNNEALSIEELINTIIEFVEILSN | 4 | 
